Measured values from PMC10920689.
One block for each substance: values may come before it.

Columns and labels:
[1] = molecular target: truncated soluble human FcRn of the FcRn binding ELISAs (hFcRn-GST or biotinylated human FcRn; the form is not told for the panel) (UniProt P55899)
[2] = molecular target: human FcRn coupled to the FcRn retention column (UniProt P55899); test: analytical FcRn affinity chromatography; 100 μg NIP IgG1 variant injected over a human FcRn retention column at pH 6.0, eluted by a pH gradient 6.0 to 8.8 over 110 min (20 mM MES, 140 mM NaCl pH 6.0; 20 mM Tris/HCl, 140 NaCl pH 8.8)
[3] = molecular target: truncated soluble biotinylated mouse FcRn lacking the transmembrane domain (mouse | not stated) (UniProt Q61559)
[4] = molecular target: truncated soluble human FcRn of the FcRn binding ELISAs (hFcRn-GST or biotinylated human FcRn; the form is not told for the panel) (UniProt P55899); remark: listed apart in the source
[5] = molecular target: anti-NIP IgG4 REW (human); test: SPR; IgG variants amine-coupled to CM5 chips (300 RU), serial dilutions of monomeric hFcRn-His injected; phosphate buffer pH 6.0, 25 °C, 50 µl/min; 1:1 Langmuir model
[6] = molecular target: anti-NIP IgG4 WT (human); test: as above
[7] = molecular target: anti-NIP IgG1 DHS (human); test: as above
[8] = molecular target: anti-NIP IgG1 YTE (human); test: as above
[9] = molecular target: anti-NIP IgG2 WT (human); test: as above
[10] = molecular target: anti-NIP IgG1 Q311R/M428E/N434W (REW) (human); test: as above
[11] = molecular target: anti-NIP IgG1 WT (human); test: as above
[12] = molecular target: anti-NIP IgG3 R435H/REW (human); test: as above
[13] = molecular target: anti-NIP IgG1 KF (human); test: as above
[14] = molecular target: anti-NIP IgG1 YTE/KF (human); test: as above
[15] = molecular target: recombinant etanercept WT; test: as above
[16] = molecular target: anti-NIP IgG2 REW (human); test: as above
[17] = molecular target: anti-NIP IgG3 WT (human); test: as above
[18] = molecular target: anti-NIP IgG1 LS (human); test: as above
[19] = molecular target: anti-NIP human IgG1 Q311R/M428E/N434W (REW) (human); test: SPR; Biacore 3000; NIP IgG1 variants amine-coupled (300 RU) to CM5 chips; serial dilutions of monomeric hFcRn-His injected at pH 6.0 (phosphate), 50 μl/min, 25 °C; Langmuir 1:1 model

Substance: anti-NIP human IgG1 Q311R/M428E/N434W (REW) (antibody)
plasma half-life after i.v. injection (5 mg/kg) in human FcRn transgenic mice (Tg32) preloaded with IVIg [1]: 341 h | pH of elution from the FcRn column [2]: 7.58 pH | plasma half-life in conventional mice, against WT [3]: 2 fold

Substance: anti-NIP human IgG1 wild type (antibody)
plasma half-life after i.v. injection (5 mg/kg) in human FcRn transgenic mice (Tg32) preloaded with IVIg [1]: 187 h | pH of elution from the FcRn column [2]: 6.95 pH

Substance: anti-NIP human IgG2 wild type (antibody)
plasma half-life in Tg32 mice preloaded with IVIg [4]: 202 h

Substance: truncated soluble His6x tagged human FcRn lacking the transmembrane domain (hFcRn-His), monomeric fraction (from UniProt P55899 24-297; P61769 21-119) (receptor)
fold lower KD than WT [19]: 20 fold

The next lines start with the values.

plasma half-life in Tg32 mice preloaded with IVIg [4]: 276 h
Substance: anti-NIP human IgG2 Q311R/M428E/N434W (REW) (antibody)

Kd [5]: 13.1 nM | koff [5]: 0.008 s⁻¹ | kon [5]: 606000 M⁻¹ s⁻¹ | Kd [6]: 1280 nM | koff [6]: 0.123 s⁻¹ | kon [6]: 95800 M⁻¹ s⁻¹ | Kd [7]: 40.3 nM | koff [7]: 0.0304 s⁻¹ | kon [7]: 756000 M⁻¹ s⁻¹ | Kd [8]: 28.2 nM | koff [8]: 0.0168 s⁻¹ | kon [8]: 594000 M⁻¹ s⁻¹ | Kd [9]: 388 nM | koff [9]: 0.0536 s⁻¹ | kon [9]: 138000 M⁻¹ s⁻¹ | Kd [10]: 8.39 nM | koff [10]: 0.0055 s⁻¹ | kon [10]: 653000 M⁻¹ s⁻¹ | Kd [11]: 171 nM | koff [11]: 0.0825 s⁻¹ | kon [11]: 483000 M⁻¹ s⁻¹ | Kd [12]: 10.3 nM | koff [12]: 0.007 s⁻¹ | kon [12]: 674000 M⁻¹ s⁻¹ | Kd [13]: 15.9 nM | koff [13]: 0.0122 s⁻¹ | kon [13]: 770000 M⁻¹ s⁻¹ | Kd [14]: 3.44 nM | koff [14]: 0.003 s⁻¹ | kon [14]: 871000 M⁻¹ s⁻¹ | Kd [15]: 346 nM | koff [15]: 0.12 s⁻¹ | kon [15]: 348000 M⁻¹ s⁻¹ | Kd [16]: 13.3 nM | koff [16]: 0.0075 s⁻¹ | kon [16]: 570000 M⁻¹ s⁻¹ | Kd [17]: 525 nM | koff [17]: 0.177 s⁻¹ | kon [17]: 337000 M⁻¹ s⁻¹ | Kd [18]: 13.7 nM | koff [18]: 0.0058 s⁻¹ | kon [18]: 422000 M⁻¹ s⁻¹
Substance: truncated soluble His6x tagged human FcRn lacking the transmembrane domain (hFcRn-His) (from UniProt P55899 24-297; P61769 21-119) (receptor)
